The values that follow come from US8410061.

What is called IC50 is the midpoint of a concentration-inhibition curve. A high value points to a need for much substance.

Test [1] has as its target patched-1 of C3H10T1/2 cells (endogenous hedgehog receptor) (mouse (cell line C3H10T1/2 is stated to be mouse)) (UniProt Q61115). Kind of test: cell-based or functional assay.
In test [2] the target is Myc-tagged patched-1 on transiently transfected human embryonic kidney 293 (EBNA-293) cells. Kind of test: FACS competition with Shh-Ig (5 nM) on 293 cells transfected with Myc-tagged patched-1.
Sequence of Myc-tagged patched-1 on transiently transfected human embryonic kidney 293 (EBNA-293) cells (Q61115 whole entry): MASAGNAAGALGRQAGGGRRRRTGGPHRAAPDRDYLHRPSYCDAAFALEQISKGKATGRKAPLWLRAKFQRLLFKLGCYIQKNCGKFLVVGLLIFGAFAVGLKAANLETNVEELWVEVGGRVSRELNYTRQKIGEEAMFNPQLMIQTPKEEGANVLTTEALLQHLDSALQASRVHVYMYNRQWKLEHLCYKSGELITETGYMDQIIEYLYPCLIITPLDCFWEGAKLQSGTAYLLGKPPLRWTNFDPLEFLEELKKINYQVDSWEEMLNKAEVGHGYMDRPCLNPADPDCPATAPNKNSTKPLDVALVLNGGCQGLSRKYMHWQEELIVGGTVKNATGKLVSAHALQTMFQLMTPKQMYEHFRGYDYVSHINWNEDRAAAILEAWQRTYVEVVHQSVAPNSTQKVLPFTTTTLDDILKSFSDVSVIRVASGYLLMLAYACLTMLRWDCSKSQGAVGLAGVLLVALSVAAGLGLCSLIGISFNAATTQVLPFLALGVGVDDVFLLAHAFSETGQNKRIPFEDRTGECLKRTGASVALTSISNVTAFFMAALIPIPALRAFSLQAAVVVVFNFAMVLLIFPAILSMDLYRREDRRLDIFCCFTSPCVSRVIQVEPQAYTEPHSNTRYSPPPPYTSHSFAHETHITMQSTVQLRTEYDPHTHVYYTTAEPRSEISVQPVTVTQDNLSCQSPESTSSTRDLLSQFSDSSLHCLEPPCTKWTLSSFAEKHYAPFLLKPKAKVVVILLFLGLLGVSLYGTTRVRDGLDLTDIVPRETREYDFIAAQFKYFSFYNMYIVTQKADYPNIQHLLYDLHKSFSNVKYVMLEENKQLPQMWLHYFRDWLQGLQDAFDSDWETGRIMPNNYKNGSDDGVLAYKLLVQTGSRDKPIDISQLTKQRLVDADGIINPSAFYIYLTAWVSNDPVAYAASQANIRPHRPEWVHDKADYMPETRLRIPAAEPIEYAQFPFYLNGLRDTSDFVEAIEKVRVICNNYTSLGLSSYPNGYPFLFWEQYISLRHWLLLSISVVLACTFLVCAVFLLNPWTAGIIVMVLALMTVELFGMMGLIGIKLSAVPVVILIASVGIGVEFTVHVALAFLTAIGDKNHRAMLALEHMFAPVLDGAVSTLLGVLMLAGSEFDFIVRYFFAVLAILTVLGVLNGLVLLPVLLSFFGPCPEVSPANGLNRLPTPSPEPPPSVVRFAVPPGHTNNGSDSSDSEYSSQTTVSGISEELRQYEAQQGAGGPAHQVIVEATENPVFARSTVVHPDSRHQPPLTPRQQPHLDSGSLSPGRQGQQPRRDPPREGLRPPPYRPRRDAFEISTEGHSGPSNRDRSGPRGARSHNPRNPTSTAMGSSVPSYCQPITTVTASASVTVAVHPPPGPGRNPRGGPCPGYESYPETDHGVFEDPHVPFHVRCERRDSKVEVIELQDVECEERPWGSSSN

Sequence of patched-1 of C3H10T1/2 cells (endogenous hedgehog receptor) (mouse (cell line C3H10T1/2 is stated to be mouse)) (Q61115 whole entry): as above

In the case of “Shh (N-5), Sonic hedgehog variant lacking residues CGPGR from the N-terminus (from UniProt Q15465 29-197) (ligand)”, the block of AP activity induced by mature Shh in C3H10T1/2 cells, IC50 in test [1] stood at 80 nM.
Regarding “Shh (N-9/C-3), Sonic hedgehog variant lacking … from the N-terminus and SGG from the C-terminus (from UniProt Q15465 33-194) (ligand)”, in test [1], the block of AP activity induced by mature Shh in C3H10T1/2 cells, IC50 was 80 nM.
For “Shh (N-10), Sonic hedgehog variant lacking the first 10 N-terminal amino acids (from UniProt Q15465 34-197) (ligand)”, the block of AP induction by mature Shh (2.5 ug/ml) in C3H10T1/2 cells, IC50 in test [1] amounted to 250 nM.
Substance “human mature Sonic hedgehog N-terminal domain (from UniProt Q15465 24-197) (ligand)” showed an IC50 in test [2] of 3.5 nM.
In turn, “Shh (C1S), Sonic hedgehog N-terminal domain with the N-terminal cysteine replaced by serine (from UniProt Q15465 25-197) (ligand)” came in with a block of AP induction by human Shh in C3H10T1/2 cells, IC50 in test [1] of 500000 nM. In addition, the IC50 in test [2] was 1 nM.
